Measurements from paper PMC10855554.
Each block holds one substance with its values, some of them ahead of it.

Assays:
TbTim10-Myc (T. brucei) = experiment: co-IP; anti-Myc agarose beads, 1% digitonin-solubilised mitochondrial extract of double-tagged T. brucei cells (day 2 of induction), 50 mM Tris pH 7.2, 50 mM NaCl, 10% glycerol, 12 h at 4 °C; immunoblot, bound fraction as percent of input
TbTim8/13-HA (T. brucei) = experiment: co-IP; anti-HA agarose beads, 1% digitonin-solubilised mitochondrial extract of double-tagged T. brucei cells (day 2 of induction), 50 mM Tris pH 7.2, 50 mM NaCl, 10% glycerol, 12 h at 4 °C; immunoblot, bound fraction as percent of input
TbTim9-HA (T. brucei) = experiment: as above
TbTim12-HA (T. brucei) = experiment: as above
TbTim10-HA (T. brucei) = experiment: as above
TbTim13-HA (T. brucei) = experiment: as above

percent of input co-precipitated (% of the input) (TbTim10-Myc (T. brucei)): 45
Substance: TbTim8/13-HA (natural protein)

percent of input co-precipitated (% of the input) (TbTim10-Myc (T. brucei)): 25
Substance: TbTim10-HA (natural protein)

The remaining lines, values behind:

Substance: TbTim9-HA (natural protein)
percent of input co-precipitated (% of the input) (TbTim10-Myc (T. brucei)): 35

Substance: TbTim10-Myc (natural protein)
percent of input co-precipitated (% of the input) (TbTim8/13-HA (T. brucei)): 45 | percent of input co-precipitated (% of the input) (TbTim9-HA (T. brucei)): 45 | percent of input co-precipitated (TbTim12-HA (T. brucei)): < 10% | percent of input co-precipitated (TbTim10-HA (T. brucei)): < 10% | percent of input co-precipitated (TbTim13-HA (T. brucei)): < 10%

Substance: TbTim12-HA (natural protein)
percent of input co-precipitated (% of the input) (TbTim10-Myc (T. brucei)): 30
